The results in this text go back to US20240350835A1 (AMBRX, published 2024).

For the assay, the target named is T1, prostate specific membrane antigen (PSMA) (UniProt Q04609 1-750, limits assumed).
T1 construct: whole, on cells; Endogenous PSMA on human prostate cancer cell lines; also called PSMA antigen; PSMA receptor
The experiment in a line: FACS, HEK293 supernatants on LnCap cells expressing PSMA. An excerpt: Example 2: Antibody Humanization-Parental mouse J591 (Liu et al., Cancer Research, 57, […], 1997) antibody was humanized by selecting human frameworks based on sequence identity with the mouse framework sequence. The light chain and heavy chain CDRs from the mouse antibody were grafted onto the human frameworks, respectively, and analyzed for binding to PSMA antigen. Humanized variants were generated by pairing four human heavy chain frameworks with six light chain frameworks. The variants were expressed transiently in HEK293 cells and the supernatants were tested for binding to the PSMA antigen expressed in LnCap cells by FACS. Table 4 describes a selected heavy chain variable region sequence and 4 light chain variable region sequences used for further studies. […] ID Nos: 8 and the light chain sequence of SEQ. […] ID Nos: 10 and the light chain sequence of SEQ. […] ID Nos: 12 and the light chain sequence of SEQ. […] ID Nos: 14 and the light chain sequence of SEQ. ID Nos: 15.

T1 sequence (Q04609 whole entry): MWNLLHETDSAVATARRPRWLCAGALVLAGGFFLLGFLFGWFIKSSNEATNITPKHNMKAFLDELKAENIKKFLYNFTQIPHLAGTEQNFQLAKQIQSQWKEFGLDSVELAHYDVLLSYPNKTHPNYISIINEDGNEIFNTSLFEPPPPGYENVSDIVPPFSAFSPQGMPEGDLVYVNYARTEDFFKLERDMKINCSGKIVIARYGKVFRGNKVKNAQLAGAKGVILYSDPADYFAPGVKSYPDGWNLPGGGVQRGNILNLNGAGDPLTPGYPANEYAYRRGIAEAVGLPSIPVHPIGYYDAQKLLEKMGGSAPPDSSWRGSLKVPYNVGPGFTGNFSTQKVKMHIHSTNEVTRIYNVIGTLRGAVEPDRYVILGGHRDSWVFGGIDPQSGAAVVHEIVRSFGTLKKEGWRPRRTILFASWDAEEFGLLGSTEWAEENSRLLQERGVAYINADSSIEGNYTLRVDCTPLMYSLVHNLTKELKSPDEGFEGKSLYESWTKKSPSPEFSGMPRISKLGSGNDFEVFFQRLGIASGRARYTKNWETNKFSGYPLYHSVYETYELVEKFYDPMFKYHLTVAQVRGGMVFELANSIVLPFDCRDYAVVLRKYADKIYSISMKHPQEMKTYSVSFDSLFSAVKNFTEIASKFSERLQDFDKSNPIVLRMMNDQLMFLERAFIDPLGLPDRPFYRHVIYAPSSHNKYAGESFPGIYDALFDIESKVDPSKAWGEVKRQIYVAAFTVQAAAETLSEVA

B1: Humanized Anti-PSMA (full length) Variant 4 (antibody, human IgG1, kappa, V domains shown)
VH: QVQLVQSGAEVKKPGASVKVSCKASGYTFTEYTIHWVRQAPGQRLEWMGNINPNNGGTTYNQKFEDRVTITRDTSASTAYMELSSLRSEDTAVYYCAAGWNFDYWGQGTTLTVSS
VL: DIQLTQSPSFLSASVGDRVTITCKASQDVGTAVDWYQQKPGKAPKLLIYWASTRHTGVPSRFSGSGSGTEFTLTISNLQPEDFATYYCQQYNSYPLTFGGGTKVEIKR
notes: Humanized J591 (CDR graft), full length; expressed transiently in HEK293 cells, supernatant tested by FACS on LnCap cells; also called humanized anti-PSMA variant 4
On to B1, for which the binding result was “binds”.
